B1: Prolactin receptor (Homo sapiens), P16471 (parent)
chain: MKENVASATVFTLLLFLNTCLLNGQLPPGKPEIFKCRSPNKETFTCWWRPGTDGGLPTNYSLTYHREGETLMHECPDYITGGPNSCHFGKQYTSMWRTYIMMVNATNQMGSSFSDELYVDVTYIVQPDPPLELAVEVKQPEDRKPYLWIKWSPPTLIDLKTGWFTLLYEIRLKPEKAAEWEIHFAGQQTEFKILSLHPGQKYLVQVRCKPDHGYWSAWSPATFIQIPSDFTMNDTTVWISVAVLSAVICLIIVWAVALKGYSMVTCIFPPVPGPKIKGFDAHLLEKGKSEELLSALGCQDFPPTSDYEDLLVEYLEVDDSEDQHLMSVHSKEHPSQGMKPTYLDPDTDSGRGSCDSPSLLSEKCEEPQANPSTFYDPEVIEKPENPETTHTWDPQCISMEGKIPYFHAGGSKCSTWPLPQPSQHNPRSSYHNITDVCELAVGPAGAPATLLNEAGKDALKSSQTIKSREEGKATQQREVESFHSETDQDTPWLLPQEKTPFGSAKPLDYVEIHKVNKDGALSLLPKQRENSGKPKKPGTPENNKEYAKVSGVMDNNILVLVPDPHAKNVACFEESAKEAPPSLEQNQAEKALANFTATSSKCRLQLGGLDYLDPACFTHSFH

Variants of: B1
Details: with 1433z_human YWHAZ

| Variant | effect of a mutation on the interaction |
| --- | --- |
| T415A | decreasing interaction strength |
| C413A;S414A;T415A | decreasing interaction strength |

From IntAct's records for PubMed 12819209
